Measurements: patent US20070105779A1, “Isolated, ssx-2 and ssx-2 related peptides useful as hla binders and ctl epitopes, and uses thereof” (priority 2002, published 2007)

Key:
[1] = target: HLA-A2; test: functional competition vs tyrosinase 368-376 on T2 cells, readout lysis by CTL LAU 156/34; 50% inhibition
[2] = target: HLA-A2; test: functional competition vs tyrosinase 368-376 on T2 cells; relative to SEQ ID NO: 17
[3] = target: HLA-A2; test: functional competition vs tyrosinase 368-376 on T2 cells, readout lysis by CTL LAU 156/34; relative to SEQ ID NO: 1

Binder | IC50 [1] [nM] | Relative binding [2] | Relative binding [3]
AAAPKIFYA (modifications not checked) [… (SEQ ID NO: 1)] | 20 | 10 | 1
AAAPKAFYA (modifications not checked) [… (SEQ ID NO: 5)] | 200 | 1 | 0.1
AAGPKIFYA (modifications not checked) [… (SEQ ID NO: 2)] | 286 | 0.7 | 0.07

The remaining lines, values ahead:

IC50 [1] [nM] | Relative binding [2] | Relative binding [3] | Binder
133 | 1.5 | 0.16 | AAAAKIFYA (modifications not checked) [… (SEQ ID NO: 3)]
22 | 9 | 0.9 | AAAPAIFYA (modifications not checked) [… (SEQ ID NO: 4)]
